# In the nanobody polyreactivity screen of Harvey et al. (2022):
# Experiment: yeast display, Sf9 membrane polyspecificity reagent, FACS + sequencing; frameworks hold sequencing errors
# Method in brief: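 Using colony PCR, genes from sorted yeast display clones were amplified, then sequenced on MiSeq at 2 × 250 and filtered by CDR length. The clones had been stained with 10% biotinylated, detergent-solubilized Sf9 membrane reagent for 1 hour at 4 °C and sorted by FACS into low and high (top ~1%) gates on anti-HA and streptavidin fluorescence. Polyreactivity labels come from the gate of origin.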
row,Sequence,polyreactivity (PSR sort gate)
1,QVQLVESVGGLVQAGGSLRLSCAASGNTFKYYAMGWYRQAPGKERELVAGITWTGGRTNYADSVKGRFTISRDNAKNTVYLQMNSLKPEDTAVYYCAADYWWYTGYDYWGQGTQVTVSS,high polyreactivity
2,QVQLVESVGGLVQAGGSLRLSCAASGNTLVYYDMGWYRQAPGKERELVAAISWSTGSTYYADSVKGRFTISRDNAKNTVYLQMNSLKPEDTAVYYCAAEPELDEYEHDYWGQGTQVTVSS,low polyreactivity
3,QVQLVESVGGLVQAGGSLRLSCAASGRIFGGYALGWYRQAPGKERELVAAITSSGSTNYADSVKGRFTISRDNAMNTVYLQMNSLKQEDTAVYYCANDFKTVYYWWGMDYWGQGTQVTVSS,low polyreactivity
4,QVQLVESVGGLVQAGGSLRLSCAASGRIFGPYVMGWYRQAPGKERELVAAISTSGTSTYYADSVKGRFTISRDNAKNTDYLPMNSLKPEDTAVYYCAIRSGARHRLMDYWGQGTQVTVSS,low polyreactivity
5,QVQLVESVGGLVQAGGSLRLSCAASGRIFLYYAIGWYRQAPGKERELVAVISWSGGSTYYADSVKGRFTISRDNAKNTVYLQMNILKPEDTAVYYCAADVVPTWYGYNYDYWGQGTQVTVSS,high polyreactivity
6,QVQLVESVGGLVQAGGSLRLSCAASGRIFPAYAMGWYRQAPGKERELVASIRRGGITYADSVKGRFTISRDNAKNTVYLQMKSLKPEDTAVYYCNADYRGWGYHMDYWGQGTQVTVSS,low polyreactivity
7,QVQLVESVGGLVQAGGSLRLSCAASGRIFYLYAMGWYRQEPGKERELVAVISYGGDRTSYADSVKGRFTISRDNAKNTVYLQMNSLKPEDTAVYYCAARPFYRGYYYWGQGTQVTVSS,high polyreactivity
8,QVQLVESVGGLVQAGGSLRLSCAASGRMFAKYAMGWYRQAPGKERELVPISSSVGRTYYADSVKGRFTISRDNAKNTVSLHMHSLKPEDTAVYYCNAKPRWYVPYDYSGQGTQVTVSS,high polyreactivity
9,QVQLVESVGGLVQAGGSLRLSCAASGRPSNRYAMGWYRQAPGKERELVAAISGRGGSTYYADSVKGRFTISRDNAKNTVYLQMNSLKPEDTAVYYCAKQWYVAKISYDYWGQGTQVTVSS,high polyreactivity
10,QVQLVESVGGLVQAGGSLRLSCAASGRRTIRYNAMGWYRQAPGKEREFVASISRSGGSTYYADSVKGRFTISRDNAKNTVYLQMNSLKPEDTAVYYCAAAASHLVAYGWGYEYYYWGQGTQVTVSS,high polyreactivity
11,QVQLVESVGGLVQAGGSLRLSCAASGRTFAPNFMGWYRQAPGKERELVAAITYSSASTYYADSVKGRFTISRDNAKNTVYLQMNSLKPEDTAVYYCAARDRYYFGGMYYWGQGTQVTVSS,low polyreactivity
12,QVQLVESVGGLVQAGGSLRLSCAASGRTFTGNAMGWYRQAPGKERELVAAISQRGGRTNYADSVKGRFTISRDNAKNTVYLQMNSLKPEDTAVYYCAADQSYPKRLPSFEYWGQGTQVTVSS,low polyreactivity
13,QVQLVESVGGLVQAGGSLRLSCAASGRTFTTNAMGWYRQAPGKERELVAAITIGDDTYYADSVKGRFTISRDNAKNTVYLQMNSLKPEDTAVYYCAADYKRVPFVTQYVSKDGYWGQGTQVTVSS,low polyreactivity
14,QVQLVESVGGLVQAGGSLRLSCAASGRTFTYNSMGSYRQAPGKERELVAAITRRGGSTYYADSVKGRFTISRDNAKNTVYLQMNSLKPEDTAVYYCAATGYLRTYDYWGQGTQVTVSS,high polyreactivity
15,QVQLVESVGGLVQAGGSLRLSCAASGRTFVGNTMGWYRQAPGKERELVAAISGSGSRTYYADSVKGRFTISRDNAKNTVYLQMNSLKPEDTGVYYCASQGNYWGQGTQVTVSS,high polyreactivity
16,QVQLVESVGGLVQAGGSLRLSCAASGRTLGGNAMGWYRQAPGKERELVAAITNSASTYADSVKGRFTISRDNAKNTVYLQMNSLKPEDTAVYYCNAPDPSDQHGDYWGQGTQVTVSS,low polyreactivity

row,Sequence,polyreactivity (PSR sort gate)
1,QVQLVESVGGLVQAGGSLRLSCAASGSIFTENAMGWYRQAPGKERELVATITITGSTNYADSVKGRFTISRDNAKNTFYLQMNSLKPEDTEVYYCNADLYIAFSASAYDYWGQGTQVTVSS,low polyreactivity
2,QVQLVESVGGLVQAGGSLRLSCAASGSIFTWYAMGWYRQAPRKERELVAAITRGGSTYADSVKGRFTISRDNAKNTVYLQMNSLKPEDTAVYYCNAVYGVYDFNYWGQGTQVTVSS,low polyreactivity
3,QVQLVESVGGLVQAGGSLRLSCAASGSISGYYAMGWYRQAPGKERELVASIRYTGARTYYADSVKGRFTISRDNAKNTVYLQMHSLKPEDTAVYYCAADVNRDRVWGGDYWGQGTQVTVSS,low polyreactivity
4,QVQLVESVGGLVQAGGSLRLSCAASGSITVANAMGWYSQAPGKESELVAAITDSGDDTYYADSVKGRFTNSRDNAKNTVYLLMNSLKAEDTAVYYCAVEAWSVPPYDYWGQGTQVTVSS,low polyreactivity
5,QVQLVESVGGLVQAGGSLRLSCAASGSTFAFYDMGWYRQAPGKERELVAAISQSDGDTYYADSVKGRFTISRDNAKNTVYLQMNSLKPEDTAVYYCAAETAHTPEYERGSDYWGQGTQVTVSS,low polyreactivity
6,QVQLVESVGGLVQAGGSLRLSCAASGSTFGYNAMGWYRHAPGKEMELVAAITRSSSRTYYADYVKGRFTISRDNAKNTVYLQMNSLKPEDTAVYYCAKVRYVVGSIFNYSYNYWGQGTQVTVSS,high polyreactivity
7,QVQLVESVGGLVQAGGSLRLSCAASGSTFKGYYMGWYRQAPGKERELVAAIDSGGSTYYADSVKGRFTISRDNAKNTVYLQMNSLNPVDTAVYYCAATGQDTYGLDVVDEYDYWGQGTKVTVSS,low polyreactivity
8,QVQLVESVGGLVQAGGSLRLSCAASGSTFYIYAMGWYRQAPGKERELVADINNSDSTYYADSVKGRFTISRDNAKITVYLQMYSLKPEDTAVYYCAAYDYYIGAYSYGGSDYDYWGQGTQVTVSS,low polyreactivity
9,QVQLVESVGGLVQAGGSLRLSCAASGSTLDGNPMGWYRQAPGKERELVAAISRSGTSTYYADSVKGRFTISRDNAKNTVYLQMNSLKPEDTAVYYCNKVGYIAFDYWGQGTQVTVSS,low polyreactivity
10,QVQLVESVGGLVQAGGSLRLSCAASVRTFYNYSMGWYRQAPGKERELVAGISRRGGSTYYADSVKGRFTISRDNAKNTVYLQMNSLKPEDTAVYYCIEDLVRPGYYRYDYRGQGTQVTVSS,high polyreactivity
11,QVQLVESVGGLVQAGGSLRLSCAASVYAMGWYRPAPGKERELVAAITDSGSTNYADSVKGRFTISRDNAKNTVYLQMNSLKPEDNAVYYCNADPYYATGSWARLPLYQYDYWGPGTQVTVSS,low polyreactivity
12,QVQLVESVGGLVQAGGSLRLSCAASYAMAWYRQAPGKERELVATITRTDRTNYADSVKGRFTISRDNAMNTVYFQMNSLKPEDTAVYDCNKVEWSAPGDSRKYGYWGQGTQVTVSS,low polyreactivity
13,QVQLVESVGGLVQAGGSLRLSCAATGRIFHYNAMGWYRQAPGKERELVAAITSSGGTTYYADSVKGRFTISRDIAKNTVYLQMNTLKPEDTAVYYCNAVTSARVNYRGQGTQVTVSS,high polyreactivity
14,QVQLVESVGGLVQAGGSLRLSCAATGSIFSYYAMGWYRQAPGKERELVAAISVSGGRTYYADSVNGRFTISRDNAKNTVYLQMNSLKPEDTAVYYCATRIRSYYYWGQGTQVTVSS,high polyreactivity
15,QVQLVESVGGLVQAGGSLRLSCAAYGRTFAPNAMLWYRQAPGKESELVAAISWSGTSTYYADSVKGRFTISRDNSKNTVYLQMYSLKPEDTAFYDCAADMEGRVGSPWTYDYWGQGTQVTVSS,low polyreactivity
16,QVQLVESVGGLVQAGGSLRLSCAGSGRIFRNYAMGWYRQAPGKERELVAAISDSSGSTYYADSVKGRFTISRDNAKNTVYLQMNILKPEHTAVYFCRYYFGSGYYYWGQGTQVTVSS,high polyreactivity
